Measured values as given in patent publication US20050043231A1, “Therapy for growth hormone induced insulin resistance in juveniles with growth disorders” (priority 2001, published 2005).

Assays:
[1] = Insulin sensitivity by Bergman's minimal model (frequently sampled iv glucose tolerance test with tolbutamide) in short SGA children on rhGH therapy; format: in vivo, human
Description: All subjects were born SGA, had marked short stature (height approximately—3 standard deviation score (SDS)) with a height velocity<25th percentile for >1 year prior to starting rhGH therapy. SGA was defined as a birth weight<10th percentile for gestational age. Additional enrolment criteria for inclusion into the study included; no change in Tanner pubertal stage and/or testicular volumes throughout the study period, normal GH response to clonidine stimulation (defined as a GH level≧7 μgm/L), absence of both islet cell antibodies (<10 Juvenile Diabetes Foundation units) and insulin autoantibodies to exclude type 1 prediabetes. Prepubertal subjects were defined as males with a testicular volume<4 ml and girls with tanner stage 1 breast development. Subjects were excluded if; a chromosomal, intrauterine infection or syndromal cause for SGA was identified, a first degree relative had type 2 diabetes mellitus, or medical therapy was taken that was known to influence SI. Subjects were recruited from the Endocrinology Clinics at Starship Children's Hospital. Birth weight and length were converted into SDSs to correct for age and sex. Body mass index (BMI) was used as a measure of relative obesity and expressed as BMI SDS.
Insulin sensitivity (SI) was measured in 11 subjects prior to and 12 subjects during rhGH treatment. In addition five prepubertal subjects agreed to have rhGH therapy suspended for three months with reassessment of SI. Bergman's minimal model was used to measure SI, acute insulin response (AIR) and glucose effectiveness (Sg). The data was provided from a 90 min frequently sampled iv glucose tolerance test with tolbutamide, which had been modified and validated for use in children as previously described (Cutfield et al. 1990). SI is a measure of insulin mediated glucose uptake, AIR a measure of insulin secretory capacity and Sg is a measure of glucose stimulated glucose uptake independent of insulin. These three indices are characteristic measurements useful for determining glycemic states. Plasma glucose and insulin was measured from all samples and the values used for measurement of SI, AIR and Sg. Approval for the study was provided by the North Health Ethics Committee and signed, informed consent was obtained from subjects and their parents.
Plasma glucose concentration was measured using a Hitachi 911 automated random access analyser (Tokyo, Japan) with an interassay coefficient variation of 1.2% (Trinder P. Determination of blood glucose using an oxidase-peroxidase system with a non-carcinogenic chromogen. J Clin Pathol […]; 22: 158-61). Insulin was determined by Abbotts IMX microparticle enzyme immunoassay with an interassay coefficient of variation of <5%. Plasma IGF-I was measured using an established IGF binding protein blocked radioimmunoassay (Blum et al. Radioimmunoassays for insulin-like growth factors and their binding proteins. Growth Reg. 1994; 4: (Suppl.) 11-19). The IGF-I detection limit was 1.3 ng/ml with intra-assay and inter-assay coefficients of variation of 5.0% and 9.2%, respectively. Plasma IGF-II samples were intially treated with acid-ethanol cryoprecipitation to remove IGF II from binding proteins. IGF II was then measured by RIA using a highly specific polyclonal antiserum (Blum et al. A specific radioimmunoassay for insulin-like growth factor II. The interference of IGF binding proteins can be blocked by excess IGF-I. Acta Endcrinol (Copenh) 1988; 129:427-435). […]

[2] = Fasting serum IGF-I, IGF-II and leptin and BMI SDS in short SGA children on rhGH therapy; format: in vivo, human
Description: All subjects were born SGA, had marked short stature (height approximately—3 standard deviation score (SDS)) with a height velocity<25th percentile for >1 year prior to starting rhGH therapy. SGA was defined as a birth weight<10th percentile for gestational age. Additional enrolment criteria for inclusion into the study included; no change in Tanner pubertal stage and/or testicular volumes throughout the study period, normal GH response to clonidine stimulation (defined as a GH level≧7 μgm/L), absence of both islet cell antibodies (<10 Juvenile Diabetes Foundation units) and insulin autoantibodies to exclude type 1 prediabetes. […] Body mass index (BMI) was used as a measure of relative obesity and expressed as BMI SDS.
Plasma glucose concentration was measured using a Hitachi 911 automated random access analyser (Tokyo, Japan) with an interassay coefficient variation of 1.2% (Trinder P. Determination of blood glucose using an oxidase-peroxidase system with a non-carcinogenic chromogen. J Clin Pathol 1995; 22: 158-61). Insulin was determined by Abbotts IMX microparticle enzyme immunoassay with an interassay coefficient of variation of <5%. Plasma IGF-I was measured using an established IGF binding protein blocked radioimmunoassay (Blum et al. Radioimmunoassays for insulin-like growth factors and their binding proteins. Growth Reg. 1994; 4: (Suppl.) 11-19). […]

[3] = Tail cuff systolic blood pressure in IUGR rats; format: in vivo, rat; conditions: day 53, tail cuff, vs no treatment group and GH treated group
Method: Studies of insulin resistance in vivo in rats were carried out in animals in which insulin resistance was produced by fetal undernutrition (“IUGR”) as described previously (Woodall et al. 1996). Virgin Wistar rats (age 100±5 days) were time mated using a rat estrus cycle monitor to assess the stage of estrus of the animals prior to introducing the male. After confirmation of mating, rats were housed individually in standard rat cages containing wood shavings as bedding and free access to water. All rats were kept in the same room with a constant temperature maintained at 25° C. and a 12-h light: 12-h darkness cycle. Animals received an undernutrition diet throughout pregnancy that was 30% of an ad libitum (“AD”) diet. Food intake and maternal weights were recorded daily until birth. […] After birth, pups were weighed and litter size recorded. […]
(§1) Troglitazone was added to food at approximately 100 mg/kg/day based on daily food consumption. Metformin was mixed with drinking water and the dose calculated to 500 mg/kg/day based on daily water consumption. […] Body weight and food intake of all offspring were measured daily for the first 2 weeks then every second day until study completion. […]
At day 53, systolic blood pressure measurements were recorded using tail cuff plethysmography (Blood pressure analyser IITC, Life Science, Woodland Hills, Calif., USA) as described previously (Vickers et al. 2000). […]

[4] = Growth and body composition in IUGR rats; format: in vivo, rat
Method: (§2) Studies of insulin resistance in vivo in rats were carried out in animals in which insulin resistance was produced by fetal undernutrition (“IUGR”) as described previously (Woodall et al. 1996). Virgin Wistar rats (age 100±5 days) were time mated using a rat estrus cycle monitor to assess the stage of estrus of the animals prior to introducing the male. After confirmation of mating, rats were housed individually in standard rat cages containing wood shavings as bedding and free access to water. All rats were kept in the same room with a constant temperature maintained at 25° C. and a 12-h light: 12-h darkness cycle. Animals received an undernutrition diet throughout pregnancy that was 30% of an ad libitum (“AD”) diet. Food intake and maternal weights were recorded daily until birth. A total of 40 male pups were recruited for the study. After birth, pups were weighed and litter size recorded. Litter size was then adjusted to eight pups to ensure standardised nutrition. Male pups from undernourished mothers were cross-fostered onto dams which received AD feeding throughout pregnancy to ensure post-natal viability. After weaning all male offspring were fed a hypercaloric diet ad libitum for the remainder of the study (total digestible energy 4846 kcal/kg, protein 31.8%, fat 30%, fat/energy ratio 55.72%, protein/energy ratio 26.25%). The fat content of the hypercaloric diet was chosen to be typical of many Western diets known to be associated with abnormalities in glucose metabolism in humans.
At 25 days of age, three days after weaning, study animals were enrolled into treatment groups for 28 days. The study groups were weight matched. […]
as §1
Statistical comparisons were carried out using the statistical package SAS (version 8) for personal computers. […] For analysis of growth and body composition data (BMI and % retroperitoneal fat), each of the four treatment groups were analysed as separate treatments and then Dunnetts test was used to compare the three active treatments with the control group. Data are expressed as mean±SEM, with p<0.05.
Body composition was examined in several different ways; body mass index (BMI), retroperitoneal fat expressed as a percentage of body weight (retroperitoneal fat %) and gonadal fat expressed as a percentage of body weight (gonadal fat %). […]

[5] = Fasting plasma insulin, glucose, IGF-I and FFA in IUGR rats treated for 28 days; format: in vivo, rat
Method: as §2
At 25 days of age, three days after weaning, study animals were enrolled into treatment groups for 28 days. The study groups were weight matched. The 40 study males were divided into four treatment groups, each of 10 animals; (a) no treatment (control group), (b) troglitazone and metformin, (c) recombinant bovine GH (GH) and (d) GH, troglitazone and metformin. […]
as §1
At day 53, systolic blood pressure measurements were recorded using tail cuff plethysmography (Blood pressure analyser IITC, Life Science, Woodland Hills, Calif., USA) as described previously (Vickers et al. 2000). […] Pulses in pressure were recorded during deflation at a rate of 3 mmHg/sec and the reappearance of a pulse was used to determine systolic blood pressure. […]
IGF-I in rat blood plasma was measured using an IGF binding protein (IGFBP)-blocked rat RIA described previously (Blum et al. 1994). […] Rat insulin was measured by an in-house radioimmunoassay (Vickers et al. 2000, Lewis et al. 1999). […]

rhGH: recombinant human growth hormone given to short SGA children
compensatory rise in AIR (acute insulin response) ([1]; during rhGH therapy, p<0.009): 123±59%
recovery of SI after rhGH suspended ([1]; five prepubertal subjects, three months after rhGH therapy was suspended): no recovery in SI
fall in SI during rhGH therapy, prepubertal children ([1]; prepubertal subjects): 48%
fall in SI during rhGH therapy, pubertal subjects ([1]; pubertal subjects): 35%
fall in SI (insulin sensitivity) during rhGH therapy ([1]; short SGA children, all subjects, 21±6 months of rhGH, p=0.018): 44±10%
adverse event: type 2 diabetes mellitus ([2]; one subject, 12 months after cessation of 4.1 years of rhGH therapy): developed type 2 diabetes mellitus
fasting serum IGF-I level ([2]; with rhGH therapy, 127±37 pretreatment, p<0.001): 189±46 μgm/l

B1: GH: recombinant bovine GH, subcutaneously 10 μgm/gm/day in two divided doses in IUGR rats (protein, UniProt P01246 27-217, looked up)
Somatotropin: AFPAMSLSGLFANAVLRAQHLHQLAADTFKEFERTYIPEGQRYSIQNTQVAFCFSETIPAPTGKNEAQQKSDLELLRISLLLIQSWLGPLQFLSRVFTNSLVFGTSDRVYEKLKDLEEGILALMRELEDGTPRAGQILKQTYDKFDTNMRSDDALLKNYGLLSCFRKDLHKTETYLRVMKCRRFGEASCAF
systolic BP [3]: trend of increasing systolic BP
nose to anus length ([4]; IUGR rats at study end, no treatment group 179±2): 188±1 mm
gonadal fat % (percentage of body weight) ([4]; IUGR rats, across the four groups): increase in gonadal fat %
retroperitoneal fat % (percentage of body weight) ([4]; IUGR rats, no treatment group 0.97±0.06%): 0.69±0.05%
BMI ([4]; IUGR rats, no treatment group 6.8±0.2): 6.9±0.1
fasting insulin levels ([5]; 28 days of treatment, GH vs no treatment p<0.0001, GH plus sensitisers vs GH alone p=0.01): substantially and significantly increased
plasma free fatty acids (FFA) ([5]; fasting): fall observed in plasma FFA
plasma glucose ([5]; fasting, no treatment group 7.8±0.3, p<0.0001): 11.9 ± 0.9 mmol/L
fasting IGF-I levels ([5]; p<0.0001): higher
